From paper PMC8241133

Biological target: CD123 peptide epitope (24 aa, extracellular domain, disulfide between the two Cys) (UniProt P26951)
Assay: flow cytometry, peptide-coated magnetic beads
Details: PBS (binding buffer), 37 °C, 30 min; BSA-bead signal subtracted for Kd; pH and salt not given

UniProt P26951, sequence (P26951 whole entry, the tested form may be a part): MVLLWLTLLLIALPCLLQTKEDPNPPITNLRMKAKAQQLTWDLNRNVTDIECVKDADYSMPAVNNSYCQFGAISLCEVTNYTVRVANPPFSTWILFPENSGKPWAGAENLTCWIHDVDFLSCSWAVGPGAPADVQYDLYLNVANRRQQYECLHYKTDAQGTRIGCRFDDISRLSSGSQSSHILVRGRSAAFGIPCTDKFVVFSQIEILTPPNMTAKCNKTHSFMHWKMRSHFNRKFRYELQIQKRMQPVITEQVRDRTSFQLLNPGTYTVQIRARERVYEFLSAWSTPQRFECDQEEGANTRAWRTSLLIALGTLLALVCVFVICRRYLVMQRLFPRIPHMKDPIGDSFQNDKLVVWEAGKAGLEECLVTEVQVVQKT

Sequence: TGCGTGTGTACTGTGTCTGGTCCCGTAGCTACTAGCGAACTCCCTGCCTCTTAGGGATTTGGGCGG [CY30]
- Kd: 0.0154 µM

Sequence: TGCGTGTGTAGTGTGTCTGGGCTACATCGATGAGCTGCCTAGGGTCCCTCTTAGGGATTTGGGCGG [ZW25]
- Kd: 0.0294 µM
